This data set can be described thus: label from the status in PepcDB records.
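Further: failed if final PepcDB status was selected cloned or expressed and not failed if soluble or beyond.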

As for “FDQAPVLVVGDVMLDRYWHGGTSRISPEAPVPVVKVDQIEDRPGGAANVALNIAALGAPASLVGVTGDDEAAESLTNSLKAAGVVARFQRIADQPTIVKLRVMSRHQQLLRIDFEEPFNTDPLALSAEVYSLLDGIKVLVLSDYGKGALKNHQALIQAARKRGIPVLADPKGKDFAIYRGASLITPNLSEFEAIVGHCEDEAQLVTKGAQLMQELDLGALLVTRGEHGMTLLRPDQQALHLPARAREVFDVTGAGDTVISTLAAAIAAGEELPHAVALANLAAGIVVGKLGTAAISAPELRRAIQR”, the protein production entry is “failed”.

Turning to “FEDFNTNPYQPSKVPASNLLSTMFNVYACPQQNACQEINCMWASFSGQVTATANWSFGKNIFAYYNASEGHNDSSWGRLYGYIYPSFFLVENSTEKKGVIYAMAQLTRVYGMQLLASLQGPIPYTQMKAGETEAPYDNEQTVWHAMFDDLDNAITILKSAATFGVNQDLAVVDQFYKGDCSKWLKFANTLKLRMAIRISGVEPEYAQTKAQEAVLGGVMESVGDSSYDTTNGGINENGYAIVSGWPEVRANACLVSYMNGYNDPRRPAYFTPQTQTAAGGYVGVRSGSAEIPEPTVYANYSKLFIATDKTLPQPVMYAAEAAFLRAEGALKGWNMGGDAKTFYEKGVRLSFEEFGVSGADDYLADATSIPGNYVDNLIAGHTGNNYTNQSSITIKWEDGADDAKKLERVLTQKWIACYPDPMNGWADFRRTGYPRIFPATESMNADCNTGRGQRRLRFTRSEYNNNKANVEAAVSMLSNGKDSNGTDLWWAMKENGTY”, the protein production entry is “not failed”.

Take “FFKGAASSVLELTEAELVTAEAVRSVWQRILPKVLEVEDSTDFFKSGAASVDVVRLVEEVKELCDGLELENEDVYMASTFGDFIQLLVRKLRGDDEE”: the protein production result is given as “not failed”.

As for “FIQIKPGYDYPIISALRAIISGNADAVPDEVGGVSKEKLVELAETMKNAKYGAVLYGLGVTQSRGRDRNVENAVKLIQLLNRHTRWVIWPMRGHYNVVGAGEVPAWEVGYQYAIDFSRGYPR”, the protein production entry is listed as “failed”.

As to “FLNSVLNFSLFLLNAHDSYLEVMRNRDTLSRMISSLEEVLDVSRRAELIEKTLHYLKDMFPGIVLSSVSLLEDGKIKTFFLKNGQIEVVNLKRGIVVKAFETKRDLFVNDVRDFPEFYDVTNGRTRSAAAIFFEYENTPLVLEIEKDSEITEYELSSLKMMARILAIFFSR”, the protein production entry is “failed”.

As for “FQQTQDWVFIIDEKISRITANQSMRAVFDWPEEEFDFSDKLLGVSQKRRSFYRKLMLSLKEGEHWRGEELIVTANKDEYHVIINVTVGFSSVTNALHYLFVLTDIS”, the protein production result is “failed”.

For the sequence “FRPHFLQAPGDLTVQEGKLCRMDCKVSGLPTPDLSWQLDGKPVRPDSAHKMLVRENGVHSLIIEPVTSRDAGIYTCIATNRAGQNSFSLELVVAAKE”, the protein production result was “not failed”.

On to “FSKTQRWAEPGEPICVVCGRYGEYICDKTDEDVCSLECKAKHLLQVKEKEEKS”, for which the protein production entry was “not failed”.

“FTDITERYQHAEALSESERWIRLITDHVPALIAYLNADLVYEFTNKVYEEWYCWPRGVMLGQSLREVHSEQHYQRLESYVERALAGESVTFEFAETNINNQERYMLRSYVPNRLANGEVVGIFVLIRDITERRRTAEALHQAYQNLELRV”: the protein production result is “failed”.

For the sequence “FVNTFIQFKKPIIVAVNGPAIGLGASILPLCDVVWANEKAWFQTPYTTFGQSPDGCSTVMFPKIMGGASANEMLLSGRKLTAQEACGKGLVSQVFWPGTFTQEVMVRIKELASCNPVVLEESKALVRCNMKMELEQANERECEVLKKIWGSAQGMDSMLKYLQRKIDEF”, the protein production entry is “failed”.

For “GAFDAAQLDVAQAYARHLAVSLQQSLLRQRVARLGRVYEVLSRINALVARCHEREELFDGICRVTVEVGTYRMAWVGVIDPETLNGTVVAFRGEDSDYLRQIRLSAKEDSPYRDRPACKAVRQKEIVVCNDVQEDASLKGLAPHLISYGVRSVACLPVMLDGRAFAVLALFAGDVGAFDRQEMGLLRELASDIGFALDHIQKEERLDYLAYYDS”, the protein production result is recorded as “failed”.

On to “GDAPPEIHAIYTDITERTRLEETLTYRSELESKIVDISTRFINTPIDDLDREIEAALQAIGAFVDADRSYVFLFDDEAATMSNTHEWRTEATASTQSRLQNIPYAETPWFMARMRRREGPLRVPRLEDLPPDAAGLRQRLEAGNVQSLLVLPMLNDQDLIGFVGFDAVRQQRDWDADTVMLLRVLSDAISNALQRKTAEKEMLAAKEEAEDANRMKSVFLANMSHEIRTP”, for which the protein production entry is “not failed”.

As for “GEGIQPSKKLITRDYKVKEFNKIDAGTVGNIYYTQSTDGKTDLQIYGPDNIVALIQVAVKDNTLFLSIDKSKKVRNFKKMKITITSPTLNGISFKGVGDVHIENGLTTDNLDIESKGVGNVDIQSLTCQKLNVQSMGVGDVKLEGTAQIAALHSKGVGNIEAGNLRANAVEASSQGVGDITCNATESIDAAVRGVGSIKYKGSPTIKSLSKKGVGTIKNI”, the protein production result was “not failed”.

For the sequence “GEIIEGCRLPVLRRNQDNEDEWPLAEILSVKDISGRKLFYVHYIDFNRRLDEWVTHERLDLKKIQFPKKEAKTP”, the protein production result is “not failed”.

For “GEKLLNAASTRGRLCVGIDPHESLLTSWGLPVNVDGLAEFSRACVEAFADTVALVKPQVAFYERFGSAGFAILEETIQTLRERGCLVVSDAKRGDIGSTMAGYASAWLDPASPLSSDAVTVSPYLGFHSLDPVFELAEQHGRGVFVLAATSNPEARELQDQQNADGVSISQQIVDQAAALNAPYMAQGKAGNIGVVIGATLSKPPRLSTLGGAILMPGVGAQGGTASDVDEIAGDMAHLAFPNVSRSILATGPDIAEMKNSVAKN”, the protein production entry is reported as “failed”.

Regarding “GGERRELKSLEQVHFAMAFEAPNYRAPDVYAAQVYAMALGGGMSSRLFQKVREERGLCYSIFAQSGAYEDTGQITIYAGTSGEEVADLAGLTVDELKRATEDMSEAEVARARAQLKAGLLMGLESPSNRAERLARLLAIWGRVPGVDEAVEKIDAVTVGAVRDYAERMAQARSALALYGPAEAAPALAQIRERLAA”, the protein production entry is “failed”.

In the case of “GHMAKAYKQAGVDIEAGYQAVALMKEHVQKTMRPEVLGGIGGFGGLFDLSALGYRQPVLISGTDGVGTKLKLAFLLDRHDTIGIDCVAMCVNDIIVQGAEPLFFLDYIACGKAVPEKIAAIVKGVADGCVEAGCALIGGETAEMPGMYDEDEYDLAGFAVGVAEKERLITGETIQAGDALVGLPSSGLHSNGYSLVRRIVFEQAKLSLDEIYEPLDVPLGEELLKPTRIYAKLLRSVRERFTIKGMAHITGGGLIENIPRMLPPGIGARIQLGSWPILPIFDFLREKGSLEEEEMFSVFNMGIGLVLAVSPETAAPLVEWLSERGEPAYIIGEVAKGAGVSFAGGGRA”, the protein production result is “not failed”.

Take “GKRSHSMKRNPNAPVTKAGWLFKQASSGVKQWNKRWFVLVDRCLFYYKDEKEESILGSIPLLSFRVAAVQPSDNISRKHTFKAEHAGVRTYFFSAESPEEQEAWIQAMGEAARVQ”: the protein production result is given as “not failed”.

In the case of “GLTNFTRDAEVLYQCAWIHDVMGLETEAMPYYEQAIANGLEGESLCGAYIGLGSTYRCIGEYDKAITVLETGLQQFPGNDVMKVFLSLAKFNVNDHESAMKLLLETVVK”, the protein production result was “failed”.

In the case of “GMTGFVINTRRAPFDDWRLREALLLAFNFEFINDTVTGGVMPRITSYFSGTDLAYRPGTASGREAELLAPFAADLPPGTLEGYALPQGDGTARNRTNLRRAAQFLEQAGFRIEQGQLLGPDGAPLALRFLLRQGDSDMQTVLEIYTRALERLGIAAQIEKVDNAQYTARVAELDFDLTPFRRDLSLSPGNEQRLYWGSHSAGQPGTRNLMGAASPAIDAMIDRMLAATTEDELTAATRALDRVLTAGRYVIPIWR”, the protein production result is listed as “not failed”.

In the case of “GNNVSDADIRAIKHSERRLRNHFLPQSLFSHCGFEQAFNYKYLRIMRIAVHPQIQQQGIGAQFIHYIELLAKEQGVDFIGASFGVNPELLSFWLNAGFSTARIGFTKDKASGEHSALLIKGL”, the protein production result was “failed”.

For the origin of these results see a protein production outcome set (Wang et al. 2014).
